From US10875904B2

Biological target: ovalbumin peptide SIINFEKL presented on mouse MHC Class I H-2Kb on OP9-DL1 cells (mouse) (UniProt P01901)
Test: cell-based or functional assay

Sequence of UniProt P01901 (P01901 22-369): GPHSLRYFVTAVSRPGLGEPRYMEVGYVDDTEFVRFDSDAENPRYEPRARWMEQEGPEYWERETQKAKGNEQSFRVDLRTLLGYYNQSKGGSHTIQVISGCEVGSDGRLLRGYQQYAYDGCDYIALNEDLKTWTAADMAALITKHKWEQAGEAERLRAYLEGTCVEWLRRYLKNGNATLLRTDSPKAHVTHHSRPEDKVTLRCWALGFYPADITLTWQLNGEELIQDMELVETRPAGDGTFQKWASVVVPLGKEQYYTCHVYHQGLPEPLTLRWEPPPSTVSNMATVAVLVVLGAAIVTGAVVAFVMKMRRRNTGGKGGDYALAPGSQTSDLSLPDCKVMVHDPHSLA

OT-1 transgenic TCR (specific for ovalbumin peptide SIINFEKL presented on H-2Kb)
development or survival of double positive (DP) T cells from OT-1 progenitors in OP9-DL1 culture, flow cytometry: > 0.01 µM
